This is an account of results in patent US9284369B2, “Inhibition of angiogenesis” (Genentech, Inc., priority 2007, dated 2016).

In the assay the test system is Bv8 and PKR2/EG-VEGFR2 expression. Description: White blood cells from G-CSF treated donors. The assay is classed as in vivo, human. As for the experimental part:
MaxiSorp® 96-well microwell plates (Nalge Nunc International, Rochester, N.Y.) were coated with 1.0 μg/ml 3F1 mouse monoclonal antibody (Genentech Inc.) in 50 mM carbonate buffer, pH 9.6, at 4° C. overnight. Plates were washed with PBS containing 0.05% polysorbate 20 and blocked with 0.5% bovine serum albumin, 15 p.p.m. (parts per million) Proclin 300 (Supelco, Bellefonte, Pa.) in PBS at room temperature for 1 h. After plates were washed, human Bv8 standards (0.020-2.5 ng/ml in 2-fold serial dilution, PeproTech, Rocky Hill, N.J.) and samples (minimum 1:10 dilution) in PBS containing 0.5% bovine serum albumin, 0.05% polysorbate 20, 15 p.p.m. Proclin 300 (Supelco, Bellefonte, Pa.) and 0.35N NaCl (sample buffer) were serially diluted and were added to each well. The plates were incubated for 2 hr at room temperature followed by a washing step. The bound Bv8 was detected by adding the secondary antibody, a biotinylated hamster anti-Bv8 antibody clone 3B8 (Genentech Inc.) followed by adding streptavidin-HRP (GE Healthcare, Buckinghamshire, United Kingdom) and 3,3′,5,5′-tetramethyl benzidine (Kirkegaard & Perry Laboratories, Gaithersburg, Md.) as the substrate. The reaction was stopped by adding 1 M phosphoric acid. Absorbance was read at 450 nm on a ThermoMax microplate reader (Molecular Devices, Menlo Park, Calif.). The titration curves of the standards were calculated using a four-parameter regression curve-fitting program (Genentech Inc). Human Bv8 concentration was calculated by extrapolating the optical density values of samples to the data range in the standard curve. The Bv8 ELISA was capable of measuring up to 10% lysis buffer and had the sensitivity to detect Bv8 as low as 0.20 ng/ml in tissue lysates. […] This ELISA could also detect mouse Bv8 but with less than 7% sensitivity.
Peripheral white blood cells were obtained from normal donors after 4-5 days of G-CSF treatment by apheresis collections (Cellular Therapy and Cell Processing Facilities, Fred Hutchinson Cancer Research Center, Seattle, Wash.). […]

B1: G-CSF: recombinant granulocyte-CSF: mouse or human (R&D Systems) or human Neupogen (Amgen) (protein, chains of the INN, looked up)
chain: MTPLGPASSLPQSFLLKCLEQVRKIQGDGAALQEKLCATYKLCHPEELVLLGHSLGIPWAPLSSCPSQALQLAGCLSQLHSGLFLYQGLLQALEGISPELGPTLDTLQLDVADFATTIWQQMEELGMAPALQPTQGAMPAFASAFQRRAGGVLVASHLQSFLEVSYRVLRHLAQP
With B1, the “increase in Bv8 protein level in G-CSF mobilized mononuclear cells” value (ELISA, vs untreated donors) was found to be 10 fold. Further, the “increase in Bv8 expression in G-CSF mobilized mononuclear cells” value (donors treated 4-5 days, vs untreated donors) is “About 4.5 fold”. Moreover, where the note is “vs un-treated control samples”, the “induction of PKR2/EG-VEGFR2 expression in mononuclear cells” value is recorded as about 2 fold.
